Here are results for 58 variants from the FLAb antibody collection (doi:10.7554/elife.23156).

First the molecules themselves.
B1: scFv; the commonest letter at each place (parent)
chain 1: EVKLDETGGGLVQPGRPMKLSCVASGFTFSDYWMNWVRQSPEKGLEWVAQIRNKPYNYETYYSDSVKGRFTISRDDSKSSVYLQMNNLRVEDMGIYYCTGSYYGMDYWGQGTSVTVS
chain 2: DVVMTQTPLSLPVSLGDQASISCRSSQSLVHSNGNTYLRWYLQKPGQSPKVLIYKVSNRFSGVPDRFSGSGSGTDFTLKISRVEAEDLGVYFCSQSTHVPWTFGGGTKLEIK

Variants of B1 are the subject of data set [1]. Put plainly: Kd (Tite-Seq). Particulars: with fluorescein; format: scFv 4-4-20, heavy + light.
In data set [2] the parent is B1. As to the kind of experiment: yeast surface expression (ratio to wild type); higher = more expressed. The settings on record: format: scFv 4-4-20, heavy + light.

Turning to chain 1 T28Y W36M, the Kd in data set [1] is at least 10 µM. For the same variant, the yeast surface expression in data set [2] amounted to 0.486.
As to chain 1 T28Y W36Q, the Kd in data set [1] is at least 10 µM. Also, in data set [2], the yeast surface expression came to 0.297.
For chain 1 W33I M34F, the Kd in data set [1] was at least 10 µM. For the same variant, in data set [2], the yeast surface expression was found to be 1.
chain 1 W33D N35G: in data set [1], the Kd was at least 10 µM. In addition, in data set [2], the yeast surface expression came to 0.941.
As for chain 1 W33M V37E, the dissociation constant (Kd) in data set [1] worked out at 0.0657 µM. Moreover, the yeast surface expression in data set [2] was 0.701.
As for chain 1 W33M V37L, in data set [1], the Kd was at least 10 µM. Further, in data set [2], the yeast surface expression is 0.553.
The corresponding values for chain 1 W33M V37P are at least 10 µM and 0.458.
The corresponding values for chain 1 T28W N35A are at least 10 µM and 0.862.
The corresponding values for chain 1 T28W N35H are at least 10 µM and 0.727.
For the variant chain 1 W36F V37N, the Kd in data set [1] was 0.00746 µM. Besides, the yeast surface expression in data set [2] turned out to be 0.509.
The corresponding values for chain 1 W36F V37Y are at least 10 µM and 0.738.
On the same counts, the results for chain 1 W36F V37C are 0.000454 µM and 0.75.
Take chain 1 W33C M34G N35E: the Kd in data set [1] was at least 10 µM. The yeast surface expression in data set [2] stood at 1.65.
With chain 1 W33A, in data set [1], the Kd is at least 10 µM. Also, the yeast surface expression in data set [2] turned out to be 0.883.
In the case of chain 1 W33K, the Kd in data set [1] is at least 10 µM. Besides, in data set [2], the yeast surface expression is 0.699.
On the same counts, the results for chain 1 W33H are at least 10 µM and 0.765.
As to chain 1 W33M, the Kd in data set [1] was at least 10 µM. Also, the yeast surface expression in data set [2] stood at 0.887.
On the same counts, the results for chain 1 W33G are at least 10 µM and 0.809.
The corresponding values for chain 1 W33Q are at least 10 µM and 1.01.
The corresponding values for chain 1 W33S are at least 10 µM and 0.845.
For chain 1 W33N, in data set [1], the Kd is at least 10 µM. Also, in data set [2], the yeast surface expression was determined as 1.01.
The corresponding values for chain 1 W33I are at least 10 µM and 0.854.
On to chain 1 W33E, for which, in data set [1], the Kd was at least 10 µM. In data set [2], the yeast surface expression worked out at 1.05.
On the same counts, the results for chain 1 W33P are at least 10 µM and 0.803.
Consider chain 1 W33Y, for which, in data set [1], the Kd is at least 10 µM. Further, the yeast surface expression in data set [2] worked out at 0.976.
On the same counts, the results for chain 1 W33R are at least 10 µM and 0.877.
Regarding chain 1 W33F, the Kd in data set [1] is 0.0412 µM. For the same variant, in data set [2], the yeast surface expression was found to be 0.902.
chain 1 W33L: in data set [1], the Kd was at least 10 µM. Further, in data set [2], the yeast surface expression came out at 0.824.
On the same counts, the results for chain 1 W33T are at least 10 µM and 1.02.
Turning to chain 1 W33V, the Kd in data set [1] was at least 10 µM. The yeast surface expression in data set [2] is 0.944.
On the same counts, the results for chain 1 W33D are at least 10 µM and 0.986.
On the same counts, the results for chain 1 W33C are at least 10 µM and 0.827.
On the same counts, the results for chain 1 W33S M34T are at least 10 µM and 0.463.
As for chain 1 T28W W33F W36P, the Kd in data set [1] is at least 10 µM. In addition, the yeast surface expression in data set [2] was 0.554.
The corresponding values for chain 1 T28Y D31W V37T are 0.00638 µM and 0.808.
The corresponding values for chain 1 V37L are 1.14 µM and 0.782.
With chain 1 V37G, the Kd in data set [1] was determined as 0.071 µM. In addition, the yeast surface expression in data set [2] came to 0.58.
On the same counts, the results for chain 1 V37I are 0.00239 µM and 0.916.
On the same counts, the results for chain 1 V37T are 0.00606 µM and 0.626.
On the same counts, the results for chain 1 V37F are 0.0259 µM and 0.9.
On to chain 1 V37C, for which the Kd in data set [1] was at most 0.000316 µM. The yeast surface expression in data set [2] came out at 0.926.
The corresponding values for chain 1 V37E are at least 10 µM and 0.597.
The corresponding values for chain 1 V37S are 0.00561 µM and 0.673.
On the same counts, the results for chain 1 V37Y are 0.129 µM and 1.04.
For the variant chain 1 V37N, in data set [1], the Kd is 0.00309 µM. Also, in data set [2], the yeast surface expression stood at 0.62.
On the same counts, the results for chain 1 V37D are 0.00122 µM and 1.05.
The corresponding values for chain 1 V37Q are 0.00194 µM and 0.731.
The corresponding values for chain 1 V37R are 1.08 µM and 0.716.
As to chain 1 V37K, the Kd in data set [1] amounted to 3.55 µM. Besides, in data set [2], the yeast surface expression came out at 0.351.
The corresponding values for chain 1 V37H are 7.72 µM and 0.831.
On the same counts, the results for chain 1 V37P are at least 10 µM and 0.676.
The corresponding values for chain 1 V37M are 0.000333 µM and 0.958.
With chain 1 V37A, the Kd in data set [1] was determined as 0.0434 µM. Further, in data set [2], the yeast surface expression was determined as 0.784.
On to chain 1 V37W, for which the Kd in data set [1] turned out to be 9.02 µM. Further, in data set [2], the yeast surface expression came out at 0.746.
On the same counts, the results for chain 1 T28V F29W are 0.0154 µM and 0.491.
On to chain 1 T28V F29D, for which the Kd in data set [1] was at least 10 µM. For the same variant, in data set [2], the yeast surface expression came to 0.952.
As to chain 1 T28V F29Q, the Kd in data set [1] was 0.004 µM. The yeast surface expression in data set [2] came to 0.917.
The corresponding values for chain 1 T28W V37C are 0.00128 µM and 0.75.

Usually Kd stands for the free concentration of one partner at which half of the binding sites on the other are occupied at equilibrium, for simple one-to-one binding.
